Results as given in patent US20150258217A1, “Methods of Synthesizing and Using Peg-Like Fluorochromes” (THE GENERAL HOSPITAL CORPORATION, priority 2012, published 2015).

Legend:
[1] = Probe volume determination by FPLC (Superdex 75, globular protein standards); format: physicochemical; details: Table 3A, tetrapeptides
Procedure: Size (volume) was determined by FPLC using an ÄKTA Purifier 10 and Superdex™ 75 10/300 GL column (GE Healthcare Lifesciences) with a running buffer of 0.05 M sodium phosphate, 0.15 M NaCl (0.1% Tween, pH 7.2) and flow rate of 0.5 ml/min. The protein standards (Gel Filtration Calibration Kit LMW, code no. 28-4038-41, GE Healthcare) (0.3 mg/ml, mixture of Aprotinin, Ribonuclease A, Ovalbumin, and Conalbumin) and Blue Dextran 2000 were used. To obtain volumes, Mr (apparent molecular weight based on size exclusion retention) was plotted versus Kav. Kav=(Ve−Vo)/[…], Vt=total volume, Ve=elution volume, Vo=void volume.

[2] = Quantum yield determination; format: physicochemical; details: for Quant. Yield: Table 5, in PBS
Procedure: Quantum yields were determined as described in Demas et al., “Measurement of photoluminescence quantum yields. Review”, Journal of Physical Chemistry 75, 991-1024 (1971), and Shao et al., “Facile Synthesis of Monofunctional Pentamethine Carbocyanine Fluorophores. Dyes and pigments: an international journal 90, 119-122 (2011). For IR-783 a reference quantum yield of 0.043 was used (see Li et al., “Synthesis and characterization of glucosamine-bound near-infrared probes for optical imaging”, Organic letters 8, 3623-3626, 2006); for fluorescein a reference quantum yield was […] (see Sjoback et al., “Absorption and florescence properties of fluorescein”, Spectrohimica Acta Part A 51, L7-L21, 1995). For Cy3 a reference quantum yield of 0.31 was used (Luminprobe Inc). For PN(783)'s, excitation was at 730 nm and emission spectra were recorded from 765 nm to 870 nm in PBS and maximum emission used. For PN(545)'s, excitation was at 515 nm and emission spectra were recorded from 538 nm to 700 nm in PBS and maximum emission used. For PN(497)'s, excitation was at 450 nm and emission spectra were recorded from 475 nm to 620 nm in PBS and maximum emission used. Absorbance of each probe was adjusted less than 0.1. Measurements were made in triplicate and are expressed as mean±SD.

[3] = PN and peptide size (volume, diameter) by FPLC gel filtration (Superdex 200, globular protein standards); format: physicochemical; details: for Molecular Volume: Table 3C, proposed Example 4 compounds; for Volume FPLC / Volume FPLC (diameter): Table 5; for Volume FPLC: globular protein equivalent molecular weight; for diameter: FPLC gel filtration; for Molecular Volume FPLC: Table 3B, dipeptides; for Volume FPLC (diameter): converted from globular protein equivalent MW
Procedure: DOTA-Lys-Cys(IR783)-NH2 is then dissolved in DMSO, with 2 equivalents of an NHS ester of PEG and 6 equivalents of DIPEA. The reaction was at room temperature for 5 days. Product was purified by reverse phase HPLC separation. Product molecular weight was by matrix-assisted laser desorption ionization time-of-flight mass spectrometry (MALDI-TOF MS), with product molecular volume by size exclusion FPLC using globular protein standards (GE Healthcare life science AKTApurifier 10).
The mass spec of low molecular weights (MW) were obtained by MS-ESI Micromass (Waters) and high MW molecules were determined through MALDI-TOF analyses at the Tufts University Core Facility. RP-HPLC (Varian ProStar detector and delivery modules) employed an eluant A (0.1% TFA/water) and eluant B (0.1% TFA and 9.9% water in acetonitrile). Probe size (volume) was determined by FPLC using an ÄKTA Purifier 10 and Superdex™ 200 10/300GL column (GE Healthcare) with a running buffer of 0.05 M sodium phosphate, 0.15 M NaCl (0.1% Tween, pH 7.2) and flow rate of 0.8 ml/min. Standards (GE Healthcare) were Ferritin, Ribonuclease A, Carbonic Anhydrase, and Conalbumin and Blue Dextran 2000. To obtain probe volumes, Mr (apparent molecular weight based on size exclusion retention) was plotted versus Kav. Kav=(Ve−Vo)/(Vt−Vo), Vt=total volume, Ve=elution volume, Vo=void volume.
The column was calibrated with globular protein standards, and globular protein equivalent molecular weights (in kDa) were obtained (Table 5, column 5). These were converted to PN diameters in nm using the relationship: Radius in nm=[…] where M is the molecular weight of a globular protein expressed in daltons (see Erickson, “Size and Shape of Protein Molecules at the Nanometer Level Determined by Sedimentation, Gel Filtration, and Electron Microscopy”, Biological Procedures Online 2009, 11(1): 32-50). PN's diameters ranged from 3.0 to 11.8 nm (see FIG. 23a). Using PEG's of 5 kDa and 30 kDa, selected for their low polydispersity, PN's were synthesized using IR-783, Cy3 and Fluorescein (see FIG. 22a) and their sizes determined (see FIGS. 23a, 23b, 23c). With the 5 kDa PEG and these three fluorochromes (see the magenta chromatograms in FIGS. 22a, 23b and 23c) PN diameters were 4.3 nm. With the 30 kDa PEG and these three fluorochromes (blue chromatograms, 23a, 23b, 23c), PN diameters were now 10.0 nm. For reference, the diameter of a 67 kDa albumin determined by this method was 5.4 nm.

[4] = test system: HT-29, a human colon carcinoma cell line; assay: PN and peptide binding to cells (non-specific binding, FACS); format: cell-based; details: HT-29 cells; for Cell NSB (percent of cells with fluorescence higher than unstained cell): 30 min at 37° C., FACS
Procedure: HT-29, a human colon carcinoma cell line, was from the American Tissue Culture Collection and maintained according to their instructions. Cells were seeded on 24-well plates at 5×10^5 cells/well in culture medium (RPMI 1640 with 10% FBS) the day before the assay. The day of assay, medium was removed, wells rinsed twice with DPBS (+Ca, +Mg), and 100 μl of 2% FBS/DPBS (+Ca, +Mg) added. 100 μL of Nanoprobes (2 μM) in DPBS (+Ca, +Mg) was added to cells and incubated for 30 min at 37° C. (Probe concentrations were determined spectrophotometrically (783 nm, extinction coefficient of 314 471 cm^−1 M^−1 for IR-783; 497 nm, extinction coefficient of 68 000 cm^−1 M^−1 for Fluorescein; 545 nm, extinction coefficient of 150 000 cm^−1 M^−1 for Cy3). Cells were detached by Trypsin/EDTA and assayed for fluorescence by FACS (BD 7 laser LSR2 for nanoprobes with IR-783; BD 3 laser LSR2 for nanoprobes with Fluorescein or Cy3).

[5] = Table 3A, CyAL5.5 tetrapeptides
[6] = Table 3C, proposed Example 4 compounds

DOTA-Lys(CyAL5.5)-Lys(NH2)-β-Ala-Lys(N3-DBCO-PEG4-cRGD)-NH2 [Compound 6a]
Molecular Volume [1]: <1 kDa | Quantum Yield [2, 5]: 0.082

5 kDa PEG-Cys(IR-783)-OH
Molecular Volume [3]: >20 kDa

DOTA-Lys(CyAL5.5)-Lys- βala -Lys(sPEG-RAD) [Compound 6b]
Molecular Volume [1]: <1 kDa | Quantum Yield [2, 5]: 0.081

DOTA-Lys(CyAL5.5)-Lys(NH2)-β-Ala-Lys(N3) [Compound 5a]
Molecular Volume [1]: <1 kDa | Quantum Yield [2, 5]: 0.061

(DOTA)Lys-Cys(Fluorescein) [(DOTA)Lys-Cys(FI)]
binding to cells (FACS, FIG. 30) [4]: binds cells very weakly | Cell NSB (percent of cells with fluorescence higher than unstained cell) [4]: 0.4% | Quant. Yield [2]: 0.50

CC1(C)C(/C=C/C=C/C=C/C=C2/N(CCCCS(=O)(=O)O)c3ccc4ccccc4c3C2(C)C)=[N+](CCCCS(=O)(=O)O)c2ccc3ccccc3c21 [ICG, Indocyanine green, reference compound]
Quantum Yield ([2]; Table 3B, IR-783 dipeptides): 0.041

(DOTA)Lys(PEG30K)-Cys(FI) [PN(497)10.0]
Cell NSB (percent of cells with fluorescence higher than unstained cell) [4]: 0.1% | Volume FPLC [3]: 435 kDa | Quant. Yield [2]: 0.60

(DOTA)Lys(PEG5K)-Cys(Cy3) [PN(545)4.3]
Cell NSB (percent of cells with fluorescence higher than unstained cell) [4]: 31% | diameter [3]: 4.3 nm | Volume FPLC [3]: 35 kDa | Quant. Yield [2]: 0.59

(DOTA)Lys-Cys(Cy3)
binding to cells (FACS, FIG. 30) [4]: binds to cells | Cell NSB (percent of cells with fluorescence higher than unstained cell) [4]: 98% | Volume FPLC [3]: 0.6 kDa | Quant. Yield [2]: 0.32

(DOTA)Lys(PEG40K)-Cys(IR-783) [PN(783)11.7]
Molecular Volume FPLC [3]: 690 kDa | Volume FPLC (diameter) [3]: 11.7 nm | Volume FPLC [3]: 690 kDa | Quantum Yield ([2]; Table 3B, IR-783 dipeptides): 0.18 | Quant. Yield [2]: 0.16

NH2-Cys(IR-783)-OH
Molecular Volume [3]: <2 kDa | Quantum Yield [2, 6]: <0.10

(DOTA)Lys(PEG5K)-Cys(FI) [PN(497)4.3]
Cell NSB (percent of cells with fluorescence higher than unstained cell) [4]: 0.2% | diameter [3]: 4.3 nm | Volume FPLC [3]: 35 kDa | Quant. Yield [2]: 0.59

DOTA-Lys(PEG 40 kDa)-Cys(Fl)-NH2
Molecular Volume [3]: 690 kDa | Quantum Yield [2, 6]: 0.60

(DOTA)Lys-Cys(IR-783)
binding to cells (FACS, FIG. 30) [4]: binds cells | Cell NSB (percent of cells with fluorescence higher than unstained cell) [4]: 95% | diameter [3]: 1.1 nm | Molecular Volume FPLC [3]: 0.600 kDa | Volume FPLC (diameter) [3]: 1.10 nm | Volume FPLC [3]: 0.600 kDa | Quantum Yield ([2]; Table 3B, IR-783 dipeptides): 0.053 | Quant. Yield [2]: 0.053

DOTA-Lys(CyAL5.5)-Lys(5 kDa PEG)- βAla -Lys(N3)-NH2 [Compound 5b]
Molecular Volume [1]: <1 kDa | Quantum Yield [2, 5]: 0.17
